Assay results as given in PMC12839305 (2025).

Target: T1, RVFV glycoprotein Gn head domain (154–469 aa) (Rift Valley fever virus, UniProt P21401 154-469)
T1 chain: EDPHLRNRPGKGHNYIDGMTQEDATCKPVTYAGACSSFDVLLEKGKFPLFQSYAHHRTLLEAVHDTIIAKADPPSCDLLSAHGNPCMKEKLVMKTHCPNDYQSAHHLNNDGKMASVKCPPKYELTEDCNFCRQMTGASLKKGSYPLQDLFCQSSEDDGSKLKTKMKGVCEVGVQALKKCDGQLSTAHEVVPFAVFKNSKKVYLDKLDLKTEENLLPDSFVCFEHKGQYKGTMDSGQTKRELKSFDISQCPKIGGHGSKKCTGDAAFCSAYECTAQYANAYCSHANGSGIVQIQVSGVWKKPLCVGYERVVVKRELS
Experiment: BLI

B1: LRP1 single complement-type repeat CR25 fused to human Fc (Fc fusion)
chain: not shown
**Q.** Which Kd does the source give for B1 here?
**A.** 67 nM
